Molecular target: the molecule itself
Test: cell-based or functional assay

Row | Protein | Recovery Time Crossover [s], 25 C | Recovery Time Crossover [s], 37 C | Strain crossover (G'' > G'), 25 C | Strain crossover (G'' > G'), 37 C
1 | T40A mutant (SEQ ID NO: 82) (designed binder) MRGSHHHHHHGSGRGDSGSGSGSGSGSGSGAPQMLRELQEANAALQDVRELLRQQVKEITFLKNTVMESDASGSGSGSGSGSVDGSPAGSPTSTEEGTSESATPESGPGTSTEPSEGSAPGSPAGSPTSTEEGTSTEPSEGSAPGTSTEPSEGSAPGTSESATPESGPGSEPATSGSETPGSEPATSGSETPGSPAGSPTSTEEGTSESATPESGPGTSTEPSEGSAPLESGSGSGSGSGSGAPQMLRELQEANAALQDVRELLRQQVKEITFLKNTVMESDASGSGSGSGSGSGSGRGDSHHHHHHKLN | 4.51 s | 4.58 s | 127 % strain | 143 % strain
2 | Q54A mutant (SEQ ID NO: 83) (designed binder) MRGSHHHHHHGSGRGDSGSGSGSGSGSGSGAPQMLRELQETNAALQDVRELLRQAVKEITFLKNTVMESDASGSGSGSGSGSVDGSPAGSPTSTEEGTSESATPESGPGTSTEPSEGSAPGSPAGSPTSTEEGTSTEPSEGSAPGTSTEPSEGSAPGTSESATPESGPGSEPATSGSETPGSEPATSGSETPGSPAGSPTSTEEGTSESATPESGPGTSTEPSEGSAPLESGSGSGSGSGSGAPQMLRELQETNAALQDVRELLRQAVKEITFLKNTVMESDASGSGSGSGSGSGSGRGDSHHHHHHKLN | 4.45 s | 4.39 s | 116 % strain | 132 % strain
3 | T40A+Q54A mutant (SEQ ID NO: 84) (designed binder) MRGSHHHHHHGSGRGDSGSGSGSGSGSGSGAPQMLRELQEANAALQDVRELLRQAVKEITFLKNTVMESDASGSGSGSGSGSVDGSPAGSPTSTEEGTSESATPESGPGTSTEPSEGSAPGSPAGSPTSTEEGTSTEPSEGSAPGTSTEPSEGSAPGTSESATPESGPGSEPATSGSETPGSEPATSGSETPGSPAGSPTSTEEGTSESATPESGPGTSTEPSEGSAPLESGSGSGSGSGSGAPQMLRELQEANAALQDVRELLRQAVKEITFLKNTVMESDASGSGSGSGSGSGSGRGDSHHHHHHKLN | 4.39 s | 4.38 s | 119 % strain | 95 % strain
4 | PXP (SEQ ID NO: 81) (designed binder) MRGSHHHHHHGSGRGDSVDGSGSGSGSGSGSGAPQMLRELQETNAALQDVRELLRQQVKEITFLKNTVMESDASGSGSGSGSGSGSLDGSPAGSPTSTEEGTSESATPESGPGTSTEPSEGSAPGSPAGSPTSTEEGTSTEPSEGSAPGTSTEPSEGSAPGTSESATPESGPGSEPATSGSETPGSEPATSGSETPGSPAGSPTSTEEGTSESATPESGPGTSTEPSEGSAPLDGSGSGSGSGSGSGAPQMLRELQETNAALQDVRELLRQQVKEITFLKNTVMESDASGSGSGSGSGSGSLEGRGDSHHHHHHKLN | 4.79 s | 7.91 s | 161 % strain | 151 % strain

— US20260151539A1 (University of Washington, published 2026)
